Laboratory results as given in patent publication US20240358704A1, “COMBINED ADMINISTRATION” (Hoffmann-La Roche Inc., priority 2021, published 2024).

What was measured:
delta7 mice [1] = experiment: Plantarflexor histology: muscle fiber typing and cross-sectional area; format: in vivo; details: GYM329 3 mg/kg SC weekly
Protocol: Plantarflexor (gastrocnemius, plantaris, and soleus) samples frozen for histology were embedded in cryomatrix on a soft cork surface to enable easy sectioning. Briefly, frozen and embedded tissues were mounted in a cryotome and serially sectioned (10 μm thickness) perpendicular to the fiber axis. Multiple slices (5-10) were taken at different portions of the muscle. The slices were then fixed in ice-cold paraformaldehyde and stored at −80° C. until further use.
For cross-sectional area determination, fixed sections from the mid-belly of the muscle were stained with wheat germ agglutinin (WGA) conjugated to a fluorophore to visualize cell membranes. Sections were digitized using fluorescent microscopy, cell boundaries were traced using predictive software, and cross-sectional area was determined via unbiased automated measurements. For muscle fiber type determination, histological slices were taken from the mid-belly of the soleus and the gastrocnemius muscle. The fixed tissue sections were then blocked using SuperBlock PBS blocking buffer (Thermo Fisher) for 1 h at room temperature. The slide was then washed with PBS and covered with a primary antibody against either MyHC-I, MyHC-IIa, or MyHC-IIb (1:20 dilution; Developmental Studies Hybridoma Database) and incubated overnight at 4° C. The slide was then washed with PBS and the appropriate secondary antibody added for 1 h at room temperature. The slide was washed again in PBS, covered in mounting solution, and a coverslip used to seal the tissue section for fluorescence microscopy measures. Fluorescently-labeled tissue sections were digitized using a fluorescence microscope (Nikon). Images were then analyzed for number of cells using standard counting software.

delta7 mice [2] = experiment: Body weight and muscle weights at PND52 in pharmacological mouse model of SMA; format: in vivo
Source text: The mouse model of SMA (pharmacological model) that has been used in the preclinical trial herein is the delta7 mice treated with a sub-maximal dose of the SMN-upregulating compound SMN-C1 as described in Naryshkin et al, Science 345, 688-693, 2014. […] The advantage of this model is that it has a more severe phenotype than existing mild models but lives into adulthood, which enables testing SMA treatments after disease onset. […] (1) a monotherapy, (2) as a combination therapy with an SMN-upregulating compound administered at the onset of disease, and (3) in a mild model of SMA was don. Dosing of the myostatin inhibitor began at PND24 and continued for 28 days until PND52. In all of these models, GYM329 was administrated once per week at 3 mg/kg (4 subcutaneous injections). A cohort of wild type (WT) littermates treated with the vehicle was included as a reference group. At the study's conclusion, in vivo muscle force frequency, muscle weight, muscle histopathology, bone morphometry, and voluntary running were assessed.
The pharmacological model was generated by treating delta7 mice [FVB.Cg-Tg(SMN2*delta7)4299Ahmb Tg(SMN2)89Ahmb, homozygous knockout mice completely lacking mouse Smnl] with a dose of an SMN-upregulating compound, SMN-C1. For CH1 and CH2, the mice were given a suboptimal dose of SMN-C1 (0.1 mg/kg daily) for the duration of the study. For CH3 and CH4, mice were given a suboptimal dose of SMN-C1 (0.1 mg/kg daily) from PND1-23 and switched to a higher dose (3 mg/kg daily) from PND24-52. For CH5 and CH6, mice were treated with a higher dose of SMN-C1 (3 mg/kg daily) for the duration of the study. Wild type (WT) mice [FVB.Cg-Tg(SMN2*delta7)4299Ahmb Tg(SMN2)89Ahmb, homozygous for the mouse Smnl gene] were used as a reference.
Statistical analysis was performed using SigmaPlot v11. Muscle performance data were analyzed using a two-way repeated measures ANOVA. Post-hoc analysis for pairwise comparisons was performed with a Holm-Sidak test. Body weights, muscle weights, muscle fiber typing data, and cortical and trabecular bone data were analyzed using a one-way ANOVA, with post-hoc analysis performed with a Holm-Sidak test. Data
Body weights were taken daily for SMA mice and weekly for WT mice.

delta7 mice [3] = experiment: Bone microCT of the tibia (cortical and trabecular parameters); format: in vivo; details: GYM329 3 mg/kg SC weekly
Protocol: Bone microCT scans were performed in tibias collected at PND52. There was no effect of treatment on cortical or trabecular parameters (FIG. 7 & FIG. 8).

delta7 mice [4] = experiment: In vivo plantarflexor muscle function (maximum torque, force frequency response); details: PND52
Protocol: Hind limb muscle performance was measured in vivo with a 305C muscle lever system (Aurora Scientific Inc., Aurora, CAN). Mice were anesthetized via inhalation (˜4-5% isoflurane, or to effect) and placed on a thermostatically controlled table where anesthesia was maintained via nose-cone (˜2% isoflurane, or to effect). Hair was removed from the lower leg by application of depilatory cream for 3 minutes, followed by thorough rinsing
with physiological buffer. The leg was then wiped with a 5% povidone-iodine solution followed by 70% isopropyl alcohol. The knee was isolated using a pin through the tibial head and the foot firmly fixed to a footplate on the motor shaft. Contractions were elicited in the gastrocnemius by percutaneous electrical stimulation of the sciatic nerve.
(§1) On both muscles, a force frequency response was performed. Briefly, a series of stimulations were performed at increasing frequency of stimulation (0.2 ms pulse, 500 ms train duration): 1, 10, 20, 40, 60, 80, 100, and 150 Hz, followed by a final stimulation at 1 Hz.
(§2) Muscle function data were analyzed using Aurora Scientific 615A Dynamic Muscle Analysis Software Suite in high-throughput mode. The software automatically determines a baseline, a maximum, and a minimum. The baseline is then subtracted from the maximum to give the maximal generated force. Each data file was manually inspected to ensure that cursors and fits were assigned properly and corrected when necessary. Data were then grouped and means and standard error of the mean (SEM) calculated. In the plantarflexor muscle group, results were presented as torque, expressed in the unit mN·m, since the assay measures the force produced by the gastrocnemius rotating about the ankle. Force was directly measured in the masseter, expressed in the unit gram.

delta7 mice [5] = experiment: In vivo masseter muscle function (maximum force, force frequency response); details: GYM329 3 mg/kg SC weekly, PND52
Source text: To assess masseter function, the mouse was anesthetized via inhalation (˜4-5% isoflurane, or to effect) and placed on a thermostatically controlled table where anesthesia was maintained via nose-cone (˜2% isoflurane, or to effect). The mouse was placed supine with custom designed restraint to ensure accessibility of the jaw for testing. The lever arm of the 305C muscle lever system (Aurora Scientific Inc., Aurora, CAN) was positioned in the diastema of the mandible and a suture was run under the middle lower incisors of the mouse and attached to the lever arm. The masseter was contracted by electrical stimulation using surface electrodes.
as §1, §2

[6] = Tolerability study in healthy adult subjects; format: in vivo, human; details: at AUC of 385 μg×d/mL
[7] = delta 7 mice + high dose SMN-C1 (3 mg/kg PND1-52)
[8] = delta 7 mice + high dose SMN-C1 (3 mg/kg PND1-52), vs SMA Vehicle
[9] = delta 7 mice + low dose SMN-C1 (0.1 mg/kg PND1-52)
[10] = delta 7 mice + low to high dose SMN-C1 (0.1 mg/kg PND1-23, 3 mg/kg PND24-52)
[11] = delta 7 mice + high dose SMN-C1 (3 mg/kg PND1-52), GYM329 3 mg/kg SC weekly, PND52, vs SMA Vehicle
[12] = PND52, delta 7 mice + low dose SMN-C1 (0.1 mg/kg PND1-52)

B1: GYM329: anti-myostatin antibody binding latent myostatin; CDRs SEQ ID 1-6, VH SEQ ID 7, VL SEQ ID 8, heavy chain SEQ ID 9, light chain SEQ ID 10 (antibody)
heavy: QVQLVESGGGLVQPGGSLRLSCAVSGIDLSHDDISWVRQAPGKGLEWVSIISYAGSTYYASWAKGRLTISKDTSKNQVVLTMTNMDPVDTATYYCARGVPAYSHGGDLWGQGTLVTVSSASTKGPSVFPLAPSSKSTSGGTAALGCLVKDYFPEPVTVSWNSGALTSGVHTFPAVLQSSGLYSLSSVVTVPSSSLGTQTYICNVNHKPSNTKVDKKVEPKSCDKTHTCPPCPAPEYLGGDSVFLFPPKPKDVLMISRTPEVTCVVIDVSHEDPEVKFNWYVDGVEVHNAKTKPREEQYNSTYRVVSVLPVLHRDWLNGKEYKCKVSNKALPKPIEKTISKAKGQRREPQVYTLPPSREEMTKNQVSLTCLVKGFYPSDIAVEWESNGQPENNYKTTPPVLDSDGSFFLYSKLTVDKSRWQQGNVFSCSVLHEALHAHTTRKELSLSP
light: DIVMTQSPATLSLSPGERATLSCTTSQSVYHENWLSWFQQKPGQPPKLLIYWASTLAYGVPSRFSGSGSGTDFTLTISSLQPEDAATYYCAGGYGGGRYAFGQGTKVEIKRTVAAPSVFIFPPSDEQLKSGTASVVCLLNNFYPREAKVQWKVDNALQSGNSQESVTEQDSKDSTYSLSSTLTLSKADYEKHKVYACEVTHQGLSSPVTKSFNRGEC
modifications: CDR sequences
delta7 mice [1]; [7]
  Muscle fiber types: no significant differences
delta7 mice [1]; [8]
  Mean fiber cross-sectional area: increased
  Type IIB fiber cross-sectional area: increased
delta7 mice [1]; [9]
  Muscle fiber cross-sectional area: no differences
  Muscle fiber type percentages: no differences
delta7 mice [1]; [10]
  Muscle fiber cross-sectional area: not affected
  Muscle fiber type composition: not affected
delta7 mice [2]; [11]
  Body weights: significantly increased
  Gastrocnemius weight: significantly increased
  Soleus weight: significantly increased
  TA weight: significantly increased
delta7 mice [2]; delta 7 mice + low dose SMN-C1 (0.1 mg/kg IP QD PND1-52), GYM329 3 mg/kg SC weekly from PND24, vs SMA Vehicle
  Body weight: not significantly increased
delta7 mice [2]; delta 7 mice + low dose SMN-C1 (0.1 mg/kg PND1-52), GYM329 3 mg/kg SC weekly, PND52, p=0.061
  Gastrocnemius weight: trend for increased
delta7 mice [2]; delta 7 mice + low dose SMN-C1 (0.1 mg/kg PND1-52), GYM329 3 mg/kg SC weekly, PND52, vs SMA Vehicle
  Muscle weights: did not significantly affect
delta7 mice [2]; delta 7 mice + low to high dose SMN-C1 (0.1 mg/kg PND1-23, 3 mg/kg PND24-52), GYM329 3 mg/kg SC weekly, PND52
  Muscle weights: not affected
delta7 mice [3]; [12]
  Cortical bone parameters: no effect
  Trabecular bone parameters: no effect
delta7 mice [3]; [7]
  Bone volume (trabecular): improved
  Cortical cross-sectional thickness: improved
  Mean total cross-sectional bone area (cortical): improved
  Trabecular number: improved
  Trabecular separation: improved
  Trabecular thickness: improved
delta7 mice [3]; [10]
  Cross-sectional thickness in cortical bone: improved
  Mean total cross-sectional bone area in cortical bone: improved
  Trabecular bone parameters: no effect
delta7 mice [4]; delta 7 mice + high dose SMN-C1 (3 mg/kg PND1-52), GYM329 3 mg/kg SC weekly
  Plantarflexor muscle function (maximum torque): not significantly affected
delta7 mice [4]; delta 7 mice + low dose SMN-C1 (0.1 mg/kg PND1-52), 3 mg/kg SC weekly, main effect p=0.078 vs SMA Vehicle
  Plantarflexor muscle function (maximum torque): trend for improvement
delta7 mice [4]; delta 7 mice + low to high dose SMN-C1 (0.1 mg/kg PND1-23, 3 mg/kg PND24-52), GYM329 3 mg/kg SC weekly
  Plantarflexor muscle function (maximum torque): no effect
delta7 mice [5]; at 80, 100, and 150 Hz, delta 7 mice + high dose SMN-C1 (3 mg/kg PND1-52), vs SMA Vehicle
  Masseter maximum force: increased
delta7 mice [5]; delta 7 mice + high dose SMN-C1 (3 mg/kg PND1-52), main effect p=0.048 vs SMA Vehicle
  Masseter function: improved
delta7 mice [5]; delta 7 mice + low dose SMN-C1 (0.1 mg/kg PND1-52), vs SMA Vehicle
  Masseter function (maximum force): no effect
delta7 mice [5]; [10]
  Masseter function (maximum force): no effect
[6]
  Tolerability: well-tolerated
